Each block holds one molecule with its values, some of them ahead of it.
Experiments:
[1] = biological target: SUMO-1-GST-TDG (SUMO-1-conjugated GST-TDG) (UniProt Q13569)
[2] = biological target: SUMO-1-GST-TDG (SUMO-1-conjugated GST-TDG) (UniProt Q13569); test: pull-down; GST pull-down: 10 nM GST or GST-fusion protein and 10 nM XPC-RAD23B with 20 ul glutathione-Sepharose in 100 ul binding buffer (20 mM sodium phosphate pH 7.4, 1 mM EDTA, 150 mM NaCl, 1 mM DTT, 5% glycerol, 0.01% Triton X-100, 100 ug/ml BSA), on ice 1 hour, eight washes, elution with 10 mM glutathione; immunoblot with anti-XPC and anti-GST
[3] = biological target: T1, GST-SMUG1 (GST-fused SMUG1) (UniProt Q53HV7 1-270); test: cell-based or functional assay
T1 sequence (looked up): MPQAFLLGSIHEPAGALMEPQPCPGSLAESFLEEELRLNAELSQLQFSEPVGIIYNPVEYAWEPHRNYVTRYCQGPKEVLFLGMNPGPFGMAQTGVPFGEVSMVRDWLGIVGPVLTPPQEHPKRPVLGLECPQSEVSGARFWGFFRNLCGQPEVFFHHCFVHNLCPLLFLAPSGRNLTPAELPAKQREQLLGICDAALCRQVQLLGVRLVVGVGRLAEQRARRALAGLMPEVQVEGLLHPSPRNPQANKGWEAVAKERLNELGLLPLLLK

[4] = biological target: GST-TDG (thymine DNA glycosylase fused to glutathione S-transferase, nonmodified) (human, UniProt Q13569 1-410); test: cell-based or functional assay
[5] = biological target: T2, XPC (recombinant human XPC, alone) (human, UniProt Q01831 1-940); test: in vitro reconstitution of the heterodimer; XPC-RAD23B-His heterodimer reconstituted in vitro from purified recombinant XPC and RAD23B-His, as described previously [17]; conditions: both partners purified
T2 sequence (looked up): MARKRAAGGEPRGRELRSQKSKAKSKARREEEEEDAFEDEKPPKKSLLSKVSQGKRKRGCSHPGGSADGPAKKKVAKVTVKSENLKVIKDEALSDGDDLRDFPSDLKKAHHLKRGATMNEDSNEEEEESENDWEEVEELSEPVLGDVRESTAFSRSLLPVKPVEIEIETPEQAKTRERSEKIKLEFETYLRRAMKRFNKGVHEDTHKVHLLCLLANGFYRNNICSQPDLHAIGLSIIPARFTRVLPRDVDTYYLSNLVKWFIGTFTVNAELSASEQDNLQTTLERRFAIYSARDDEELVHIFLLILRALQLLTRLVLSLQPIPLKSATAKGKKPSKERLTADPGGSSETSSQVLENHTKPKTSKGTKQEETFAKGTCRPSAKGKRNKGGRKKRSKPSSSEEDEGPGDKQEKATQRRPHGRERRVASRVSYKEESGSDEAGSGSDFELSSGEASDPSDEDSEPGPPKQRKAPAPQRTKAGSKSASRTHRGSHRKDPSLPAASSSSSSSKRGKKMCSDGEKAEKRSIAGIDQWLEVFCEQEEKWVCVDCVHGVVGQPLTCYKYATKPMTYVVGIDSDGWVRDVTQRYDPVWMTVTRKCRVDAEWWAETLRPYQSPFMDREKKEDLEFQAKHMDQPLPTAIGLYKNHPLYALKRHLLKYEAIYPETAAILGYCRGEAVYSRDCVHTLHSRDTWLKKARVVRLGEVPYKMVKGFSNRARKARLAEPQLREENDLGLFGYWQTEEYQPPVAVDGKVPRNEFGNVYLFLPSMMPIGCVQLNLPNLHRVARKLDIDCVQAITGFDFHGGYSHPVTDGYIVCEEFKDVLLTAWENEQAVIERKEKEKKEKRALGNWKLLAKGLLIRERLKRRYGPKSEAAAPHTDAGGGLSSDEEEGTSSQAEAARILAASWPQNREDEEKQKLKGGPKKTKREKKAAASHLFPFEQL

Chain of GST-TDG (thymine DNA glycosylase fused to glutathione S-transferase, nonmodified) (Q13569 whole entry, the tested form may be a part): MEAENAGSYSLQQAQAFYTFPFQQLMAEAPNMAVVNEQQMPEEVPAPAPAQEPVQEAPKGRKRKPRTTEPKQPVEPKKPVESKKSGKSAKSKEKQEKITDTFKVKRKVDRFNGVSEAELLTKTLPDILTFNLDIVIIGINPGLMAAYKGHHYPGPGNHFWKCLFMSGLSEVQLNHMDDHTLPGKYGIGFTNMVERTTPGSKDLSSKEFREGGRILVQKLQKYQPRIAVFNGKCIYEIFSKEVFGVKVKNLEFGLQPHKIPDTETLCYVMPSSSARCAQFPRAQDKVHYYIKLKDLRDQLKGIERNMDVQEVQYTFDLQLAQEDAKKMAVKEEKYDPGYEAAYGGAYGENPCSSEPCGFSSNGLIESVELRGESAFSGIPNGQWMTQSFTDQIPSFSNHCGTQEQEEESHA

stimulation by XPC-RAD23B (up to 4 nM, dose-dependent) of uracil excision from G/U mismatch DNA (1.6 nM) by 2 nM SUMO-1-conjugated His-TDG, nicking assay, 120 minutes [1]: 5 fold | fold more XPC bound than to nonmodified GST-TDG [2]: 2 fold
Molecule: XPC-RAD23B-His heterodimer (from UniProt Q01831 1-940; P54727 1-409) (complex)

stimulation by XPC-RAD23B (up to 2 nM, dose-dependent) of uracil excision from 60-bp G/U mismatch DNA (1.6 nM) by 2.5 pM SMUG1, nicking assay, 120 minutes [3]: 4 fold | stimulation by XPC-RAD23B (various concentrations) of uracil excision from a 60-bp G/U mismatch DNA (1.6 nM) by 0.42 nM His-TDG, nicking assay, 30°C [4]: 5 fold
B1: XPC-RAD23B-His heterodimer (complex, human)
chain 1: T2 sequence (looked up)
chain 2: MQVTLKTLQQQTFKIDIDPEETVKALKEKIESEKGKDAFPVAGQKLIYAGKILNDDTALKEYKIDEKNFVVVMVTKPKAVSTPAPATTQQSAPASTTAVTSSTTTTVAQAPTPVPALAPTSTPASITPASATASSEPAPASAAKQEKPAEKPAETPVATSPTATDSTSGDSSRSNLFEDATSALVTGQSYENMVTEIMSMGYEREQVIAALRASFNNPDRAVEYLLMGIPGDRESQAVVDPPQAASTGAPQSSAVAAAAATTTATTTTTSSGGHPLEFLRNQPQFQQMRQIIQQNPSLLPALLQQIGRENPQLLQQISQHQEHFIQMLNEPVQEAGGQGGGGGGGSGGIAEAGSGHMNYIQVTPQEKEAIERLKALGFPEGLVIQAYFACEKNENLAANFLLQQNFDED

binding result [5]: binds
B2: His-tagged RAD23B (RAD23B-His) (natural protein, human, UniProt P54727 1-409, looked up)
chain: B1 chain 2

Reference: publication PMC2925305 (Journal of Nucleic Acids, 2010)
